This test concerns the target human corticotropin-releasing factor 2α (CRF2 α receptor) (human), Q13324. The test is described as follows: cell-based or functional assay.

The values below come from US12679878B2, “CRF2 receptor agonists and their use in therapy” (SANOFI, priority 2020, dated 2026).

Starred links: 1 amine or outer side, 2 acyl side, 3 side chain; linkers in the order of their positions; H or OH if unused. Non-standard residues stand in square brackets, D forms with d. Groups on a side chain read outwards from the residue. No end group written: not given here. *: point of attachment. C18 diacid = O=C(O)CCCCCCCCCCCCCCCCC(=O)*; γGlu = O=C(O)[C@H](CCC(=O)[*:2])N[*:1]; AEEA = NCCOCCOCC(=O)O; Aib = CC(C)(N)C(=O)O

Sequence of human corticotropin-releasing factor 2α (CRF2 α receptor) (human), Q13324 (Q13324 20-411): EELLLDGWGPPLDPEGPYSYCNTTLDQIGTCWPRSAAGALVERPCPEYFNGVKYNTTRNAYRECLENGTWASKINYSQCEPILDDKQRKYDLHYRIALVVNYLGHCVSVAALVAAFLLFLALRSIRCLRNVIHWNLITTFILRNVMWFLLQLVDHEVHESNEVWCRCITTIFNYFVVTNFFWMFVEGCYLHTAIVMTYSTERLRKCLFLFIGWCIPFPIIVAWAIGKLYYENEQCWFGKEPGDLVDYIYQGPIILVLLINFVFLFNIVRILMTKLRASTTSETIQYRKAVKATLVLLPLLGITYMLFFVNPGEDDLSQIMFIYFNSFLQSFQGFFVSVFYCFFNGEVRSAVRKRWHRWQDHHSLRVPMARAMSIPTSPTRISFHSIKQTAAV

B1: SEQ ID NO: 146 (peptide)
peptide: FTLSLDVPIKLK([AEEA-AEEA-γGlu-C18 diacid])QILLKQERQKKQRQKAKKNKQILERV-NH2
modifications: N-terminus assumed
SMILES: CC[C@H](C)[C@H](NC(=O)[C@H](CCC(N)=O)NC(=O)[C@H](CCCCNC(=O)COCCOCCNC(=O)COCCOCCNC(=O)CC[C@H](NC(=O)CCCCCCCCCCCCCCCCC(=O)O)C(=O)O)NC(=O)[C@H](CC(C)C)NC(=O)[C@H](CCCCN)NC(=O)[C@@H](NC(=O)[C@@H]1CCCN1C(=O)[C@@H](NC(=O)[C@H](CC(=O)O)NC(=O)[C@H](CC(C)C)NC(=O)[C@H](CO)NC(=O)[C@H](CC(C)C)NC(=O)[C@@H](NC(=O)[C@@H](N)Cc1ccccc1)[C@@H](C)O)C(C)C)[C@@H](C)CC)C(=O)N[C@@H](CC(C)C)C(=O)N[C@@H](CC(C)C)C(=O)N[C@@H](CCCCN)C(=O)N[C@@H](CCC(N)=O)C(=O)N[C@@H](CCC(=O)O)C(=O)N[C@@H](CCCNC(=N)N)C(=O)N[C@@H](CCC(N)=O)C(=O)N[C@@H](CCCCN)C(=O)N[C@@H](CCCCN)C(=O)N[C@@H](CCC(N)=O)C(=O)N[C@@H](CCCNC(=N)N)C(=O)N[C@@H](CCC(N)=O)C(=O)N[C@@H](CCCCN)C(=O)N[C@@H](C)C(=O)N[C@@H](CCCCN)C(=O)N[C@@H](CCCCN)C(=O)N[C@@H](CC(N)=O)C(=O)N[C@@H](CCCCN)C(=O)N[C@@H](CCC(N)=O)C(=O)N[C@H](C(=O)N[C@@H](CC(C)C)C(=O)N[C@@H](CCC(=O)O)C(=O)N[C@@H](CCCNC(=N)N)C(=O)N[C@H](C(N)=O)C(C)C)[C@@H](C)CC
Regarding B1, the EC50 [nM], 0% HSA worked out at 0.11 nM and the EC50 [nM], 0.1% HSA stood at 4.36 nM.

B2: SEQ ID NO: 16 (peptide)
peptide: IVLSLDVPIGLK([AEEA-AEEA-γGlu-C18 diacid])QKLLKQQRQRKERQQAEKNARILARV-NH2
modifications: N-terminus assumed
SMILES: CC[C@H](C)[C@H](N)C(=O)N[C@H](C(=O)N[C@@H](CC(C)C)C(=O)N[C@@H](CO)C(=O)N[C@@H](CC(C)C)C(=O)N[C@@H](CC(=O)O)C(=O)N[C@H](C(=O)N1CCC[C@H]1C(=O)N[C@H](C(=O)NCC(=O)N[C@@H](CC(C)C)C(=O)N[C@@H](CCCCNC(=O)COCCOCCNC(=O)COCCOCCNC(=O)CC[C@H](NC(=O)CCCCCCCCCCCCCCCCC(=O)O)C(=O)O)C(=O)N[C@@H](CCC(N)=O)C(=O)N[C@@H](CCCCN)C(=O)N[C@@H](CC(C)C)C(=O)N[C@@H](CC(C)C)C(=O)N[C@@H](CCCCN)C(=O)N[C@@H](CCC(N)=O)C(=O)N[C@@H](CCC(N)=O)C(=O)N[C@@H](CCCNC(=N)N)C(=O)N[C@@H](CCC(N)=O)C(=O)N[C@@H](CCCNC(=N)N)C(=O)N[C@@H](CCCCN)C(=O)N[C@@H](CCC(=O)O)C(=O)N[C@@H](CCCNC(=N)N)C(=O)N[C@@H](CCC(N)=O)C(=O)N[C@@H](CCC(N)=O)C(=O)N[C@@H](C)C(=O)N[C@@H](CCC(=O)O)C(=O)N[C@@H](CCCCN)C(=O)N[C@@H](CC(N)=O)C(=O)N[C@@H](C)C(=O)N[C@@H](CCCNC(=N)N)C(=O)N[C@H](C(=O)N[C@@H](CC(C)C)C(=O)N[C@@H](C)C(=O)N[C@@H](CCCNC(=N)N)C(=O)N[C@H](C(N)=O)C(C)C)[C@@H](C)CC)[C@@H](C)CC)C(C)C)C(C)C
Turning to B2, the EC50 [nM], 0% HSA stood at 0.3 nM.

B3: SEQ ID NO: 147 (peptide)
peptide: IVLSLD[dV]PIGLK([AEEA-AEEA-γGlu-C18 diacid])QILLKQERQKK[Aib]REQAETNKQILAQV-NH2
modifications: N-terminus assumed
SMILES: CC[C@H](C)[C@H](N)C(=O)N[C@H](C(=O)N[C@@H](CC(C)C)C(=O)N[C@@H](CO)C(=O)N[C@@H](CC(C)C)C(=O)N[C@@H](CC(=O)O)C(=O)N[C@@H](C(=O)N1CCC[C@H]1C(=O)N[C@H](C(=O)NCC(=O)N[C@@H](CC(C)C)C(=O)N[C@@H](CCCCNC(=O)COCCOCCNC(=O)COCCOCCNC(=O)CC[C@H](NC(=O)CCCCCCCCCCCCCCCCC(=O)O)C(=O)O)C(=O)N[C@@H](CCC(N)=O)C(=O)N[C@H](C(=O)N[C@@H](CC(C)C)C(=O)N[C@@H](CC(C)C)C(=O)N[C@@H](CCCCN)C(=O)N[C@@H](CCC(N)=O)C(=O)N[C@@H](CCC(=O)O)C(=O)N[C@@H](CCCNC(=N)N)C(=O)N[C@@H](CCC(N)=O)C(=O)N[C@@H](CCCCN)C(=O)N[C@@H](CCCCN)C(=O)NC(C)(C)C(=O)N[C@@H](CCCNC(=N)N)C(=O)N[C@@H](CCC(=O)O)C(=O)N[C@@H](CCC(N)=O)C(=O)N[C@@H](C)C(=O)N[C@@H](CCC(=O)O)C(=O)N[C@H](C(=O)N[C@@H](CC(N)=O)C(=O)N[C@@H](CCCCN)C(=O)N[C@@H](CCC(N)=O)C(=O)N[C@H](C(=O)N[C@@H](CC(C)C)C(=O)N[C@@H](C)C(=O)N[C@@H](CCC(N)=O)C(=O)N[C@H](C(N)=O)C(C)C)[C@@H](C)CC)[C@@H](C)O)[C@@H](C)CC)[C@@H](C)CC)C(C)C)C(C)C
As for B3, the EC50 [nM], 0% HSA was determined as 0.18 nM and the EC50 [nM], 0.1% HSA is 8.17 nM.

B4: SEQ ID NO: 148 (peptide)
peptide: IVLSLDVPIGLK([AEEA-AEEA-γGlu-C18 diacid])QILLKQERQKK[Aib]REQAETNKRILERV-NH2
modifications: N-terminus assumed
SMILES: CC[C@H](C)[C@H](N)C(=O)N[C@H](C(=O)N[C@@H](CC(C)C)C(=O)N[C@@H](CO)C(=O)N[C@@H](CC(C)C)C(=O)N[C@@H](CC(=O)O)C(=O)N[C@H](C(=O)N1CCC[C@H]1C(=O)N[C@H](C(=O)NCC(=O)N[C@@H](CC(C)C)C(=O)N[C@@H](CCCCNC(=O)COCCOCCNC(=O)COCCOCCNC(=O)CC[C@H](NC(=O)CCCCCCCCCCCCCCCCC(=O)O)C(=O)O)C(=O)N[C@@H](CCC(N)=O)C(=O)N[C@H](C(=O)N[C@@H](CC(C)C)C(=O)N[C@@H](CC(C)C)C(=O)N[C@@H](CCCCN)C(=O)N[C@@H](CCC(N)=O)C(=O)N[C@@H](CCC(=O)O)C(=O)N[C@@H](CCCNC(=N)N)C(=O)N[C@@H](CCC(N)=O)C(=O)N[C@@H](CCCCN)C(=O)N[C@@H](CCCCN)C(=O)NC(C)(C)C(=O)N[C@@H](CCCNC(=N)N)C(=O)N[C@@H](CCC(=O)O)C(=O)N[C@@H](CCC(N)=O)C(=O)N[C@@H](C)C(=O)N[C@@H](CCC(=O)O)C(=O)N[C@H](C(=O)N[C@@H](CC(N)=O)C(=O)N[C@@H](CCCCN)C(=O)N[C@@H](CCCNC(=N)N)C(=O)N[C@H](C(=O)N[C@@H](CC(C)C)C(=O)N[C@@H](CCC(=O)O)C(=O)N[C@@H](CCCNC(=N)N)C(=O)N[C@H](C(N)=O)C(C)C)[C@@H](C)CC)[C@@H](C)O)[C@@H](C)CC)[C@@H](C)CC)C(C)C)C(C)C
Molecule B4 returned an EC50 [nM], 0% HSA of 0.29 nM and an EC50 [nM], 0.1% HSA of 14.3 nM.

B5: SEQ ID NO: 145 (peptide)
peptide: FTLSLDVPTKIK([AEEA-AEEA-γGlu-C18 diacid])QILLKQERQKKQRQKAKKNKQILERV-NH2
modifications: N-terminus assumed
SMILES: CC[C@H](C)[C@H](NC(=O)[C@H](CCC(N)=O)NC(=O)[C@H](CCCCN)NC(=O)[C@H](CC(N)=O)NC(=O)[C@H](CCCCN)NC(=O)[C@H](CCCCN)NC(=O)[C@H](C)NC(=O)[C@H](CCCCN)NC(=O)[C@H](CCC(N)=O)NC(=O)[C@H](CCCNC(=N)N)NC(=O)[C@H](CCC(N)=O)NC(=O)[C@H](CCCCN)NC(=O)[C@H](CCCCN)NC(=O)[C@H](CCC(N)=O)NC(=O)[C@H](CCCNC(=N)N)NC(=O)[C@H](CCC(=O)O)NC(=O)[C@H](CCC(N)=O)NC(=O)[C@H](CCCCN)NC(=O)[C@H](CC(C)C)NC(=O)[C@H](CC(C)C)NC(=O)[C@@H](NC(=O)[C@H](CCC(N)=O)NC(=O)[C@H](CCCCNC(=O)COCCOCCNC(=O)COCCOCCNC(=O)CC[C@H](NC(=O)CCCCCCCCCCCCCCCCC(=O)O)C(=O)O)NC(=O)[C@@H](NC(=O)[C@H](CCCCN)NC(=O)[C@@H](NC(=O)[C@@H]1CCCN1C(=O)[C@@H](NC(=O)[C@H](CC(=O)O)NC(=O)[C@H](CC(C)C)NC(=O)[C@H](CO)NC(=O)[C@H](CC(C)C)NC(=O)[C@@H](NC(=O)[C@@H](N)Cc1ccccc1)[C@@H](C)O)C(C)C)[C@@H](C)O)[C@@H](C)CC)[C@@H](C)CC)C(=O)N[C@@H](CC(C)C)C(=O)N[C@@H](CCC(=O)O)C(=O)N[C@@H](CCCNC(=N)N)C(=O)N[C@H](C(N)=O)C(C)C
For the molecule B5, the EC50 [nM], 0% HSA was 1.46 nM and the EC50 [nM], 0.1% HSA was 96.9 nM.

B6: SEQ ID NO: 149 (peptide)
peptide: IVLSLD[dV]PIKLK([AEEA-AEEA-γGlu-C18 diacid])QILLKQERQKK[Aib]REQAETNKRILERV-NH2
modifications: N-terminus assumed
SMILES: CC[C@H](C)[C@H](N)C(=O)N[C@H](C(=O)N[C@@H](CC(C)C)C(=O)N[C@@H](CO)C(=O)N[C@@H](CC(C)C)C(=O)N[C@@H](CC(=O)O)C(=O)N[C@@H](C(=O)N1CCC[C@H]1C(=O)N[C@H](C(=O)N[C@@H](CCCCN)C(=O)N[C@@H](CC(C)C)C(=O)N[C@@H](CCCCNC(=O)COCCOCCNC(=O)COCCOCCNC(=O)CC[C@H](NC(=O)CCCCCCCCCCCCCCCCC(=O)O)C(=O)O)C(=O)N[C@@H](CCC(N)=O)C(=O)N[C@H](C(=O)N[C@@H](CC(C)C)C(=O)N[C@@H](CC(C)C)C(=O)N[C@@H](CCCCN)C(=O)N[C@@H](CCC(N)=O)C(=O)N[C@@H](CCC(=O)O)C(=O)N[C@@H](CCCNC(=N)N)C(=O)N[C@@H](CCC(N)=O)C(=O)N[C@@H](CCCCN)C(=O)N[C@@H](CCCCN)C(=O)NC(C)(C)C(=O)N[C@@H](CCCNC(=N)N)C(=O)N[C@@H](CCC(=O)O)C(=O)N[C@@H](CCC(N)=O)C(=O)N[C@@H](C)C(=O)N[C@@H](CCC(=O)O)C(=O)N[C@H](C(=O)N[C@@H](CC(N)=O)C(=O)N[C@@H](CCCCN)C(=O)N[C@@H](CCCNC(=N)N)C(=O)N[C@H](C(=O)N[C@@H](CC(C)C)C(=O)N[C@@H](CCC(=O)O)C(=O)N[C@@H](CCCNC(=N)N)C(=O)N[C@H](C(N)=O)C(C)C)[C@@H](C)CC)[C@@H](C)O)[C@@H](C)CC)[C@@H](C)CC)C(C)C)C(C)C
In the case of B6, the EC50 [nM], 0% HSA turned out to be 0.06 nM and the EC50 [nM], 0.1% HSA came to 2.54 nM.
